Patent publication US20050050588, “Systemic small RNA signaling system in plants” (published 2005)

Tests used:
[1] = molecular target: T1, CMV movement protein (CMV-MP) (Cucumber mosaic virus) (UniProt Q83252); test: cell_activity
T1 sequence: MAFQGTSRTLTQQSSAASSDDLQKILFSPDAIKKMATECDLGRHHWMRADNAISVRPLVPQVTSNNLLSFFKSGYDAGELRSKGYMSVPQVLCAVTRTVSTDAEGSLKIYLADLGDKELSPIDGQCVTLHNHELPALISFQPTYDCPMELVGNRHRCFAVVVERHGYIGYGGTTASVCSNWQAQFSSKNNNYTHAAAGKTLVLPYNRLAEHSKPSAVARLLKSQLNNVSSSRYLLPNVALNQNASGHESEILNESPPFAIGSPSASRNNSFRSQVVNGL

[2] = molecular target: T2, CmPSRB1 (recombinant PSRB1) (Cucurbita maxima); test: cell_activity; conditions: cell-to-cell movement, binding not directly measured
T2 chain: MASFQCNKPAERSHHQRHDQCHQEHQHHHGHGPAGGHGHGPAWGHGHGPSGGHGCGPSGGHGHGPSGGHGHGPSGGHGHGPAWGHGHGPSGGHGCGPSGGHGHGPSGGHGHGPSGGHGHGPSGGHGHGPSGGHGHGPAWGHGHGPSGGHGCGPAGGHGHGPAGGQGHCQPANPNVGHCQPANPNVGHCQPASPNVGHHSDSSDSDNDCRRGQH

KNOTTED1 (KN1) = molecular target: T3, KNOTTED1 (KN1) (UniProt P24345); test: cell_activity
T3 sequence: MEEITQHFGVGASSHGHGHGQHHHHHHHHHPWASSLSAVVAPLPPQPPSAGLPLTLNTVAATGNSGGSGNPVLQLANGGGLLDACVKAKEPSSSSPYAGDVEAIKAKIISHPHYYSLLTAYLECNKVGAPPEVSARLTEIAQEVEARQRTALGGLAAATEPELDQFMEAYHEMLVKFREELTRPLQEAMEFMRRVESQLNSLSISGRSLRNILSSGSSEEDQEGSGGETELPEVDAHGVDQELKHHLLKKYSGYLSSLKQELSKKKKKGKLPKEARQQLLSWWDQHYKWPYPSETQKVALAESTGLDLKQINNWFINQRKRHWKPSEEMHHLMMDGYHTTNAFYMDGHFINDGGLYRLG

[3] = molecular target: T2, CmPSRB1 (recombinant PSRB1); test: EMSA; competition gel shift; 20 mM Hepes pH 7.0, 50 mM KCl, 1 mM EDTA, 30 C; conditions: tags: none (native, pET15b, E. coli); 3' 2 nt overhang
Experimental: Electrophoretic mobility-shift assays were carried out as described (S12). Reactions were assembled on ice in 10 μl of binding buffer (20 mM Hepes, pH 7.0, 50 mM KCl, 1 mM EDTA, 1 mM DTT, and 5% [v/v] glycerol). An equal amount of ³²P end-labeled 25 nt ss- or dsRNA was used in assays with various concentrations of purified and desalted R-CmPSRB1. Reaction mixtures were incubated at 30° C. for 20 min and then placed on ice. Reactions were then resolved on a 5% (v/v) nondenaturing polyacrylamide gel that was pre-run for 30 min at 50 V. Electrophoresis was typically carried out at 4° C. and 200 V. The gel was then dried and autoradiographed.

## CmRINGP RNA (1 kb)
[1]; cell-to-cell movement, 10 of 10
  activity (% injections with movement): 100
[2]; 0 of 8
  activity (% injections with movement): 0
KNOTTED1 (KN1); cell-to-cell movement, 0 of 12
  activity (% injections with movement): 0

## KN1 RNA (antisense)
KNOTTED1 (KN1); CITED includes previous studies (S13), 2 of 10, cited from earlier work
  activity (% injections with movement): 20

## GGAAAACUACCUGUUCCAUGGCCAA
[1]; cell-to-cell movement, 0 of 10
  activity (% injections with movement): 0

## KN1 RNA (sense)
KNOTTED1 (KN1); CITED includes previous studies (S13), 20 of 22, cited from earlier work
  activity (% injections with movement): 91

## 25 nt ssDNA
[2]; 0 of 14
  activity (% injections with movement): 0

## 25 nt dsRNA (overhang type not stated)
[1]; with FITC-dextran, 0 of 13
  activity (% injections with movement): 0

B1: 25 nt dsRNA 3' 2 nt overhang (FK221/FK224) (dsRNA)
RNA 1: GGAAAACUACCUGUUCCAUGGCCAA
RNA 2: GGCCAUGGAACAGGUAGUUUUCCAG
[3]
  Kd: 30.6 µM
